Assay: Radiation dosimetry and clearance kinetics from biodistribution data
Assay type: in vivo, BALB/c mice
Details: for Total absorbed dose/injected activity: sum of five α-emitting radionuclides

Structure (SMILES): C[C@@H](O)[C@H](NC(=O)[C@@H]1CSSC[C@H](NC(=O)[C@@H](Cc2ccccc2)NC(=O)CN2CCN(CC(=O)O)CCN(CC(=O)O)CCN(CC(=O)O)CC2)C(=O)N[C@@H](Cc2ccc(O)cc2)C(=O)N[C@H](Cc2c[nH]c3ccccc23)C(=O)N[C@@H](CCCCN)C(=O)N[C@@H]([C@@H](C)O)C(=O)N1)C(=O)O [[^225Ac]Ac-DOTA-TATE, metal not drawn]
- Initial activity/organ, A○ (^217At, Muscle): 0.0052 kBq
- Absorbed dose/injected activity (^217At, Pancreas): 0.0003 Gy/kBq
- Accumulated activity/organ, A~ (^217At, Pancreas): 1.1933 kBq×h
- Decay rate constant, λeff (^217At, Pancreas): 0.0080 h⁻¹
- Initial activity/organ, A○ (^217At, Pancreas): 0.0169 kBq
- Absorbed dose/injected activity (^217At, Salivary): 0.0002 Gy/kBq
- Accumulated activity/organ, A~ (^217At, Salivary): 0.7036 kBq×h
- Decay rate constant, λeff (^217At, Salivary): -0.0028 h⁻¹
- Initial activity/organ, A○ (^217At, Salivary): 0.0037 kBq
- Absorbed dose/injected activity (^217At, Skin): 0.0001 Gy/kBq
- Accumulated activity/organ, A~ (^217At, Skin): 0.6489 kBq×h
- Decay rate constant, λeff (^217At, Skin): -0.0015 h⁻¹
- Initial activity/organ, A○ (^217At, Skin): 0.0039 kBq
- Absorbed dose/injected activity (^217At, Spleen): 0.0004 Gy/kBq
- Accumulated activity/organ, A~ (^217At, Spleen): 1.0604 kBq×h
- Decay rate constant, λeff (^217At, Spleen): 0.0030 h⁻¹
- Initial activity/organ, A○ (^217At, Spleen): 0.0097 kBq
- Absorbed dose/injected activity (^217At, Stomach): 0.0005 Gy/kBq
- Accumulated activity/organ, A~ (^217At, Stomach): 3.0452 kBq×h
- Decay rate constant, λeff (^217At, Stomach): 0.0170 h⁻¹
- Absorbed dose/injected activity (^221Fr, Blood): 0.0001 Gy/kBq
- Accumulated activity/organ, A~ (^221Fr, Blood): 0.5594 kBq×h
- Decay rate constant, λeff (^221Fr, Blood): -0.0071 h⁻¹
- Initial activity/organ, A○ (^221Fr, Blood): 0.0019 kBq
- Absorbed dose/injected activity (^221Fr, Bone): 0.0003 Gy/kBq
- Accumulated activity/organ, A~ (^221Fr, Bone): 1.0195 kBq×h
- Decay rate constant, λeff (^221Fr, Bone): 0.0100 h⁻¹
- Initial activity/organ, A○ (^221Fr, Bone): 0.0170 kBq
- Absorbed dose/injected activity (^221Fr, Brain): 0.0001 Gy/kBq
- Accumulated activity/organ, A~ (^221Fr, Brain): 0.7934 kBq×h
- Decay rate constant, λeff (^221Fr, Brain): -0.0044 h⁻¹
- Initial activity/organ, A○ (^221Fr, Brain): 0.0036 kBq
- Absorbed dose/injected activity (^221Fr, Heart): 0.0000 Gy/kBq
- Accumulated activity/organ, A~ (^221Fr, Heart): 0.2102 kBq×h
- Decay rate constant, λeff (^221Fr, Heart): 0.0190 h⁻¹
- Initial activity/organ, A○ (^221Fr, Heart): 0.0067 kBq
- Absorbed dose/injected activity (^221Fr, Intestine): 0.0002 Gy/kBq
- Accumulated activity/organ, A~ (^221Fr, Intestine): 7.2991 kBq×h
- Decay rate constant, λeff (^221Fr, Intestine): 0.0130 h⁻¹
- Absorbed dose/injected activity (^221Fr, Kidney): 0.0019 Gy/kBq
- Accumulated activity/organ, A~ (^221Fr, Kidney): 12.5136 kBq×h
- Decay rate constant, λeff (^221Fr, Kidney): 0.0190 h⁻¹
- Initial activity/organ, A○ (^221Fr, Kidney): 0.4011 kBq
- Absorbed dose/injected activity (^221Fr, Liver): 0.0014 Gy/kBq
- Accumulated activity/organ, A~ (^221Fr, Liver): 32.1637 kBq×h
- Decay rate constant, λeff (^221Fr, Liver): -0.0033 h⁻¹
- Initial activity/organ, A○ (^221Fr, Liver): 0.1612 kBq
- Absorbed dose/injected activity (^221Fr, Lung): 0.0003 Gy/kBq
- Accumulated activity/organ, A~ (^221Fr, Lung): 1.7734 kBq×h
- Decay rate constant, λeff (^221Fr, Lung): 0.0080 h⁻¹
- Initial activity/organ, A○ (^221Fr, Lung): 0.0251 kBq
- Absorbed dose/injected activity (^221Fr, Muscle): 0.0000 Gy/kBq
- Accumulated activity/organ, A~ (^221Fr, Muscle): 0.1848 kBq×h
- Decay rate constant, λeff (^221Fr, Muscle): 0.0170 h⁻¹
- Initial activity/organ, A○ (^221Fr, Muscle): 0.0052 kBq
- Absorbed dose/injected activity (^221Fr, Pancreas): 0.0003 Gy/kBq
- Accumulated activity/organ, A~ (^221Fr, Pancreas): 1.1933 kBq×h
- Decay rate constant, λeff (^221Fr, Pancreas): 0.0080 h⁻¹
- Initial activity/organ, A○ (^221Fr, Pancreas): 0.0169 kBq
- Absorbed dose/injected activity (^221Fr, Salivary): 0.0002 Gy/kBq
- Accumulated activity/organ, A~ (^221Fr, Salivary): 0.7036 kBq×h
- Decay rate constant, λeff (^221Fr, Salivary): -0.0028 h⁻¹
- Initial activity/organ, A○ (^221Fr, Salivary): 0.0037 kBq
- Absorbed dose/injected activity (^221Fr, Skin): 0.0001 Gy/kBq
- Accumulated activity/organ, A~ (^221Fr, Skin): 0.6489 kBq×h
- Decay rate constant, λeff (^221Fr, Skin): -0.0015 h⁻¹
- Initial activity/organ, A○ (^221Fr, Skin): 0.0039 kBq
- Absorbed dose/injected activity (^221Fr, Spleen): 0.0004 Gy/kBq
- Accumulated activity/organ, A~ (^221Fr, Spleen): 1.0604 kBq×h
- Decay rate constant, λeff (^221Fr, Spleen): 0.0030 h⁻¹
- Initial activity/organ, A○ (^221Fr, Spleen): 0.0097 kBq
- Absorbed dose/injected activity (^221Fr, Stomach): 0.0004 Gy/kBq
- Accumulated activity/organ, A~ (^221Fr, Stomach): 3.0452 kBq×h
- Decay rate constant, λeff (^221Fr, Stomach): 0.0170 h⁻¹
- Initial activity/organ, A○ (^221Fr, Stomach): 0.0852 kBq
- lower effective half-life of kidneys compared to liver (^225Ac): ~5 fold
- Absorbed dose/injected activity (^225Ac, Blood): 0.0000 Gy/kBq
- Accumulated activity/organ, A~ (^225Ac, Blood): 0.0080 kBq×h
- Decay rate constant, λeff (^225Ac, Blood): 0.0206 h⁻¹
- Initial activity/organ, A○ (^225Ac, Blood): 0.0003 kBq
- Absorbed dose/injected activity (^225Ac, Bone): 0.0004 Gy/kBq
- Accumulated activity/organ, A~ (^225Ac, Bone): 1.4274 kBq×h
- Decay rate constant, λeff (^225Ac, Bone): 0.0030 h⁻¹
- Initial activity/organ, A○ (^225Ac, Bone): 0.0131 kBq
- Absorbed dose/injected activity (^225Ac, Brain): 0.0001 Gy/kBq
- Accumulated activity/organ, A~ (^225Ac, Brain): 0.8190 kBq×h
- Decay rate constant, λeff (^225Ac, Brain): -0.0103 h⁻¹
- Initial activity/organ, A○ (^225Ac, Brain): 0.0019 kBq
- Absorbed dose/injected activity (^225Ac, Heart): 0.0001 Gy/kBq
- Accumulated activity/organ, A~ (^225Ac, Heart): 0.4871 kBq×h
- Decay rate constant, λeff (^225Ac, Heart): -0.0004 h⁻¹
- Initial activity/organ, A○ (^225Ac, Heart): 0.0033 kBq
- Absorbed dose/injected activity (^225Ac, Intestine): 0.0001 Gy/kBq
- Accumulated activity/organ, A~ (^225Ac, Intestine): 4.4589 kBq×h
- Decay rate constant, λeff (^225Ac, Intestine): 0.0200 h⁻¹
- Initial activity/organ, A○ (^225Ac, Intestine): 0.1527 kBq
- Absorbed dose/injected activity (^225Ac, Kidney): 0.0012 Gy/kBq
- Accumulated activity/organ, A~ (^225Ac, Kidney): 8.2462 kBq×h
- Decay rate constant, λeff (^225Ac, Kidney): 0.0250 h⁻¹
- Initial activity/organ, A○ (^225Ac, Kidney): 0.3862 kBq
- Absorbed dose/injected activity (^225Ac, Liver): 0.0012 Gy/kBq
- Accumulated activity/organ, A~ (^225Ac, Liver): 29.4458 kBq×h
- Decay rate constant, λeff (^225Ac, Liver): -0.0053 h⁻¹
- Initial activity/organ, A○ (^225Ac, Liver): 0.1200 kBq
- Absorbed dose/injected activity (^225Ac, Lung): 0.0001 Gy/kBq
- Accumulated activity/organ, A~ (^225Ac, Lung): 1.0829 kBq×h
- Decay rate constant, λeff (^225Ac, Lung): 0.0130 h⁻¹
- Initial activity/organ, A○ (^225Ac, Lung): 0.0227 kBq
- Absorbed dose/injected activity (^225Ac, Muscle): 0.0001 Gy/kBq
- Accumulated activity/organ, A~ (^225Ac, Muscle): 0.5613 kBq×h
- Decay rate constant, λeff (^225Ac, Muscle): -0.0049 h⁻¹
- Initial activity/organ, A○ (^225Ac, Muscle): 0.0024 kBq
- Absorbed dose/injected activity (^225Ac, Pancreas): 0.0003 Gy/kBq
- Accumulated activity/organ, A~ (^225Ac, Pancreas): 1.4271 kBq×h
- Decay rate constant, λeff (^225Ac, Pancreas): 0.0060 h⁻¹
- Initial activity/organ, A○ (^225Ac, Pancreas): 0.0171 kBq
- Absorbed dose/injected activity (^225Ac, Salivary): 0.0002 Gy/kBq
- Accumulated activity/organ, A~ (^225Ac, Salivary): 0.8906 kBq×h
- Decay rate constant, λeff (^225Ac, Salivary): -0.0077 h⁻¹
- Initial activity/organ, A○ (^225Ac, Salivary): 0.0028 kBq
- Absorbed dose/injected activity (^225Ac, Skin): 0.0001 Gy/kBq
- Accumulated activity/organ, A~ (^225Ac, Skin): 0.8656 kBq×h
- Decay rate constant, λeff (^225Ac, Skin): -0.0092 h⁻¹
- Initial activity/organ, A○ (^225Ac, Skin): 0.0023 kBq
- Absorbed dose/injected activity (^225Ac, Spleen): 0.0001 Gy/kBq
- Accumulated activity/organ, A~ (^225Ac, Spleen): 0.3228 kBq×h
- Decay rate constant, λeff (^225Ac, Spleen): 0.0062 h⁻¹
- Initial activity/organ, A○ (^225Ac, Spleen): 0.0039 kBq
- Absorbed dose/injected activity (^225Ac, Stomach): 0.0004 Gy/kBq
- Accumulated activity/organ, A~ (^225Ac, Stomach): 2.6801 kBq×h
- Decay rate constant, λeff (^225Ac, Stomach): 0.0190 h⁻¹
- Initial activity/organ, A○ (^225Ac, Stomach): 0.0859 kBq
- Total absorbed dose/injected activity (Blood): 0.0002 Gy/kBq
- Total absorbed dose/injected activity (Bone): 0.0014 Gy/kBq
- Total absorbed dose/injected activity (Brain): 0.0004 Gy/kBq
- Total absorbed dose/injected activity (Heart): 0.0004 Gy/kBq
- Total absorbed dose/injected activity (Intestine): 0.0007 Gy/kBq
- Total absorbed dose/injected activity (Kidney): 0.0068 Gy/kBq
- Total absorbed dose/injected activity (Liver): 0.0059 Gy/kBq
- Total absorbed dose/injected activity (Lung): 0.0009 Gy/kBq
- Total absorbed dose/injected activity (Muscle): 0.0003 Gy/kBq
- Total absorbed dose/injected activity (Pancreas): 0.0011 Gy/kBq
- Total absorbed dose/injected activity (Salivary): 0.0008 Gy/kBq
- Total absorbed dose/injected activity (Skin): 0.0004 Gy/kBq
- Total absorbed dose/injected activity (Spleen): 0.0016 Gy/kBq
- Total absorbed dose/injected activity (Stomach): 0.0017 Gy/kBq

From paper PMC12866175 (European journal of nuclear medicine and molecular imaging, 2021)
